Data: patent publication US5536648, “Amplified DNA assay using a double stranded DNA binding protein” (Amrad Corporation Limited)

B1: HIV p24 c-d1 (figure: d2) PCR product with GCN4 site (primer d1 shown) (dsDNA)
DNA 1: AGCGGATGACTCATTTTTTTTTCCTTGTCTTATGTCCAGAA
DNA 2: TTCTGGACATAAGACAAGGAAAAAAAAATGAGTCATCCGCT
B2: HIV p24 c-d PCR product with GCN4 site (primer d shown) (dsDNA)
DNA 1: AAGTGACTCAAGTGACTCAATCCTTGTCTTATGTCCAGAA
DNA 2: TTCTGGACATAAGACAAGGATTGAGTCACTTGAGTCACTT

Key:
[1] = molecular target: T1, GST-GCN4 6.8 (full-length GCN4, 281 aa) (Saccharomyces cerevisiae, UniProt P03069 P03069:1-281); test: microtitre plate capture; binds with 1 ug/ml carrier human DNA; oligo called d2 in results, d1 in methods; conditions: tags: N-terminal GST (Schistosoma japonicum), pGEX-2T, E. coli; chain copies: 2
T1 sequence (P03069 whole entry, one chain of several): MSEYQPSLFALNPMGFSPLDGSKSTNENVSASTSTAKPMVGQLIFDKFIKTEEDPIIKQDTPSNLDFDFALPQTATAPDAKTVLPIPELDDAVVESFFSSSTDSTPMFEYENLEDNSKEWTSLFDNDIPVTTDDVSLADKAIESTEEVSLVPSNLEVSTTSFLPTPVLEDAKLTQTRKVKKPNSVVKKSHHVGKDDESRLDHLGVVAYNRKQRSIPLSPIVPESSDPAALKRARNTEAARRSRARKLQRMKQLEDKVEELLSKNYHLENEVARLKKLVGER

[2] = molecular target: T1, GST-GCN4 6.8 (full-length GCN4, 281 aa); test: microtitre plate capture, MTPBS-Tween, 20 C; binds with 1 ug/ml carrier human DNA; conditions: tags: N-terminal GST (Schistosoma japonicum), pGEX-2T, E. coli; chain copies: 2

Row | Binder | binding result [1] | binding result [2]
1 | B1 | binds | 
2 | B2 |  | binds
